According to patent US12662542B2, “Agnostic anti-mullerian hormone receptor binding peptides” (OVARES D LLC, priority 2019, dated 2026):
Square brackets hold non-standard residues; d marks the D form. Ends that are not written are not given here.

T1: AMH-R2 (Homo sapiens, UniProt Q16671)
T1 construct: GST
T1 sequence (Q16671 18-573): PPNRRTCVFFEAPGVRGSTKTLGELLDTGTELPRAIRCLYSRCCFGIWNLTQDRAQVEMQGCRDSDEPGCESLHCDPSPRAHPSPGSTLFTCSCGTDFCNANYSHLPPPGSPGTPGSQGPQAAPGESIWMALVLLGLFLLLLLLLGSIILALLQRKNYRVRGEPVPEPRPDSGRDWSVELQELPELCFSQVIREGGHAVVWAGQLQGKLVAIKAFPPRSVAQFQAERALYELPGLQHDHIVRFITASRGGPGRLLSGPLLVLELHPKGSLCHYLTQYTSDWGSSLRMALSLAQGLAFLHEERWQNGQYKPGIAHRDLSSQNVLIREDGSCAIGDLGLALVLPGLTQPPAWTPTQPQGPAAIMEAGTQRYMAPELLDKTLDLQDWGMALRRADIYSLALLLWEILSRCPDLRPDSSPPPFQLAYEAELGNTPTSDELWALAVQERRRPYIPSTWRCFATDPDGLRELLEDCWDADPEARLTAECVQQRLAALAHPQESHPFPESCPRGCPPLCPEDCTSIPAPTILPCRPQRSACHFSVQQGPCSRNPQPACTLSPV


Experiments:
AMH-R2 = target: T1, AMH-R2; assay: peptide microarray assay identifying AMH receptor binding peptides; conditions: microarray signal
Text: In view of the several actions of AMH, and because of the need for AMH receptor agonists and/or antagonist that can modify the activity of one or more of the AMH receptors, provided herein are AMH receptor binding peptides that modulate the activity of the AMH receptor, as described herein. Briefly, it was hypothesized that peptides that bind AMH receptors could be generated based on the amino acid sequence of the AMH biding site of the AMH-R2 receptor. More particularly, based on the amino acid sequence of the AMH-R2 that is responsible for binding AMH, as well as the amino acid sequences of AMH-R2 that are near the AMH binding site, a peptide microarray was used to identify candidate AMH receptor binding peptides that can activate AMH-R2 and thus produce similar effects to native AMH.
To identify candidate AMH receptor binding peptides described herein, a custom peptide library composed of replicate copies of a 124,000 17 mer peptide microarray was synthesized (Arizona State University, Tempe, AZ) using the method described in Legutki, J. B., et al., Scalable high-density peptide arrays for comprehensive health monitoring. Nat Commun., volume 5, 4785 (2014). The slide was assembled into an Arrayit 4×24 Hybridization Cassette and each peptide microarray was blocked with 150 uL of 30% human sera in 1×PBST for 1 hour at room temperature with shaking After blocking, the slide was washed 3× with 1×PBST using a Biotek plate washer prior to addition of protein targets. Each protein sample was diluted in 30% human sera in 1×PBST and 150 uL of each sample was dispensed into the appropriate wells in the cassette and incubated for 1 hour at 37 C with rotation at 300 rpm on a ThermoMix™ 500 heater/shaker.
After incubation, the cassette was dismantled, the slide washed 3 times in 1×PBST, rinsed three times with distilled, deionized water (ddH2O), and dried in a centrifuge for 2 minutes at 800 rpm. Secondary antibody (anti-GST, GE Healthcare™) was prepared at 10 nM in 30% human sera in 1×PBST and dispensed onto the slide. The slide was incubated for 1 hour at 37 C with rotation at 300 rpm as before. The slide was then washed 3 times in 1×PBST, rinsed 3 times with ddH2O, and dried in a centrifuge for 2 minutes at 800 rpm. Detection antibody, 10 nM Alexa Flour 647 donkey anti-goat IgG (H+L) (ThermoFisher Scientific™), was prepared in 0.75% casein in 1×PBST and dispensed onto the slide. The slide was covered and incubated for 1 hour at 37 C with rotation as before. The slide was washed 3 times in 1×PBST, rinsed 3 times with ddH2O, and dried in a centrifuge for 2 minutes at 800 rpm. The slide was scanned on an Innopsys™ Inoscan 910AL scanner and the resulting TIFF files were analyzed using the Genepix™ Pro 6.0 software. Data files were exported and analyzed using Microsoft Excel™ and JMP™ software.

[1] = system: A2780 (endometroid ovarian cancer) cells; assay: MTT cell proliferation assay; assay type: cell-based; conditions: 5, 10 and 20 μg/ml, 24 hours, vs untreated control
Method: (§1) This example describes the effect of the AMH receptor binding peptides from Example 1 on cellular proliferation, in accordance with certain example embodiments. Briefly, the first two AMH receptor binding peptides (SEQ ID NOS:1-2) from Table 1 were tested on four types of AMHR2-expressing, immortalized, chemotherapy-resistant ovarian cancer cells: SKOV-3 (ovarian serous cystadenocarcinoma), EL-1 (epithelial ovarian cancer), A2780 (endometroid ovarian cancer), and MDAH (endometroid ovarian cancer) in an MTT Assay (Trevigen™ MTT Cell Proliferation Assay).
(§2) For each cell line, cells were seeded into Falcon tissue culture treated 96-well plates in a fixed volume of 100 mcl at a density of 8,000 cells/well. […] Each experiment was executed in triplicates. For 3+1 treatments×3 wells+10 extra=22 wells×8000 cells per well, the total number of cells needed per AMH receptor binding peptide/cell line was 176,000. The cells were spun down in a sterile 15 ml conical tube for 5 minutes at 200×g and then resuspended in 2.2 ml of media (100 ul per well×22 wells). 100 mcl of the cell-containing fluid (=8,000 cells) were placed in each well of the 96-well plate. After 24 hours the media was removed from each well and replaced with the 4 treatment media (phenol-free media). At this point, 10 extra wells with media, but no cells, were created per each cell line (10×4=40 wells). The AMH receptor binding peptides (AMHR2BP (SEQ ID NO: 1) or AMHR2BP2 (SEQ ID NO: 2)) were administered in the culture medium and the effects analyzed after 24 hours in culture as percentage reduction of cell replication using an MTT […] assay.

[2] = system: MDAH (endometroid ovarian cancer) cells; assay: MTT cell proliferation assay; assay type: cell-based; conditions: 5, 10 and 20 μg/ml, 24 hours, vs untreated control
Method: as §1, §2

[3] = system: EL-1 (epithelial ovarian cancer) cells; assay: MTT cell proliferation assay; assay type: cell-based; conditions: 5, 10 and 20 μg/ml, 24 hours, vs untreated control
Method: as §1, §2

[4] = system: SKOV-3 (ovarian serous cystadenocarcinoma) cells; assay: MTT cell proliferation assay; assay type: cell-based; conditions: 5, 10 and 20 μg/ml, 24 hours, vs untreated control
Method: as §1, §2

[5] = system: ovarian follicles of C57BL/6J female mice; assay: in vivo mouse ovary histology, follicle count and cell proliferation
Text: Knowledge of the developmental landmarks and the highly inbred conformity made C57BL/6J female mice a natural choice for this study. In this mouse strain, puberty is characterized by vaginal opening at approximately 25 days of life, estrus 3-4 days later, and subsequently by regular cycling every 5-6 days. Maturity is considered to be reached at 90 days of life (12 weeks).
Briefly, 24 C57BL mature female mice (18 weeks old) were allocated to four (4) experimental groups: baseline group (6 mice), AMHR2BP (SEQ ID NO: 1) group (6 mice), a recombinant rAMH group (6 mice), and control group (6 mice; 21 weeks of age, that received saline). The six mice in the baseline group were euthanized at the beginning of the experiment and comprised the baseline against which to compare the 2 experimental, and the control, groups. Mice in the AMHR2BP (SEQ ID NO: 1) group received AMHR2BP (SEQ ID NO: 1) at a daily dose of 50 μg/day (BP group); the rAMH group received recombinant AMH (rAMH) at a daily dose of 1.8 μg/day (to obtain 24.0 ng/ml serum level), and the control group received normal saline.
In order to accomplish this task, an osmotic pump was implanted intraperitoneally at time zero. […] The osmotic pump (ALZET Osmotic Pumps, model 1004, Cupertino, CA) administered AMHR2BP (SEQ ID NO: 1) and rAMH with a flow rate (QT) of 0.11 μl/h for 4 weeks, based on a mouse temperature of 36.9° C. and a tissue osmolality of 7.5 atm. The daily AMHR2BP (SEQ ID NO: 1) dose was chosen based on the results of Example 3 (above) and estimated in vitro to in vivo extrapolation (IVIVE), while the rAMH dose was determined as described in reference. Mice in the control group were treated with normal saline by using the same osmotic pump vehicle implanted intraperitoneally. All mice in the 2 experimental, and the control, groups were euthanized 3 weeks into the experiment. All mice underwent a blood draw just prior to euthanasia, and their ovaries were explanted for real-time RT-PCR and histological analyses.
After dissection, one ovary was stored in formalin and embedded in paraffin for immunohistochemical examination of follicular development and count with hematoxylin and eosin staining, while Ki67 slides were used for examination of cell proliferation. The other ovary was frozen for mRNA analysis (see below). Five μm-thick sections were serially cut and every 5th section analyzed for follicular counts. All ovarian cortex specimens where obtained from each group, and at least three sections were analyzed in each tissue specimen. The computerized program used for image analysis, CaseCenter™ by 3DHistech Pathology Information System™ (Version 2.3; Budapest, Hungary), allowed us to examine all the sections at the same time and to accurately count all the follicles in each section without redundancy. For follicle counting, the investigators were blinded to the treatment groups. One oocyte surrounded by a monolayer of flat, or cubic, granulosa cells enclosed by a basement membrane identified a primordial (PDF) and a primary follicle (PRF), respectively. Secondary follicles (SEF) were identified with one oocyte surrounded by multiple layers of cubic granulosa cells, and tertiary follicles (TEF) by fluid accumulation amid the granulosa cells.

luteinized GCs = conditions: rAMH group; cited from earlier work
[6] = mouse ovarian cortex, 3 weeks, i.p. osmotic pump, AMHR2BP 50 μg/day, rAMH 1.8 μg/day

Row | Molecule | Average (AMH-R2; average of Rep 1 and Rep 2) | Rep 1 (AMH-R2; replicate 1) | Rep 2 (AMH-R2; replicate 2) | cell proliferation [1] | cell proliferation [2] | cell proliferation [3] | cell proliferation [4] | PDFs compared with the control (placebo) group ([5]; control group 21 weeks' age) | PRFs compared with the control (placebo) group ([5]; control group 21 weeks' age) | SEFs compared with the control (placebo) group ([5]; control group 21 weeks' age) | TEFs compared with the control (placebo) group ([5]; control group 21 weeks' age) | Corp. Lutea/mm^3 Median [5, 6] | PDF/mm^3 Median [5, 6] | PRF/mm^3 Median [5, 6] | SEF/mm^3 Median [5, 6] | TEF/mm^3 Median [5, 6] | reduction of Ki67 and Caspase3 (luteinized GCs)
1 | NGSSlQAVNrlSGVS (NGSS[dL]QAVN[dR][dL]SGVS) [SEQ ID NO: 2] | 65535 | 65535 | 65535 | reduced cellular proliferation | reduced cellular proliferation | reduced cellular proliferation | reduced cellular proliferation |  |  |  |  |  |  |  |  |  | 
2 | rAMH: recombinant Anti-Müllerian hormone (rAMH), comparator in the mouse study (protein, UniProt P03971 452-560, looked up) Muellerian-inhibiting factor: SAGATAADGPCALRELSVDLRAERSVLIPETYQANNCQGVCGWPQSDRNPRYGNHVVLLLKMQVRGAALARPPCCVPTAYAGKLLISLSEERISAHHVPNMVATECGCR |  |  |  |  |  |  |  | maintained | low | lower | lower | 7.5 /mm^3 | 1182 /mm^3 | 514 /mm^3 | 1144 /mm^3 | 871 /mm^3 | greater than 30%
